From article PMC11582070, “Template-assisted covalent modification underlies activity of covalent molecular glues” (Nature Chemical Biology, 2023)

Target: recombinant BRD4BD2 (residues 368-440) (human) (UniProt O60885)

Sequence of GAK_(14–351)-HA (O14976 14-351): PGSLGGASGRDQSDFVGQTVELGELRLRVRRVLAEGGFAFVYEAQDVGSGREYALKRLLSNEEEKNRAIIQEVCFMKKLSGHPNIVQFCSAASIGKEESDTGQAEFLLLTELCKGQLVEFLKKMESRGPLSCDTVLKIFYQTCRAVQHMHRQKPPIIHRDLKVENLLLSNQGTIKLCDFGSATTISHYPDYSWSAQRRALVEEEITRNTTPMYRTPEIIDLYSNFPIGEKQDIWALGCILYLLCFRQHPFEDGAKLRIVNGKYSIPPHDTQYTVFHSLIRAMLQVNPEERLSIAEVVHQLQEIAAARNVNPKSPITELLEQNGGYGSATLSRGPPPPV

- intact protein mass spectrometry: MMH2 adduct on recombinant GAK 14-351 with BRD4BD2 present, 4 °C 16 h (approximately 2% without BRD4BD2): 22%
- intact protein mass spectrometry: TMX1 adduct on recombinant GAK 14-351 with BRD4BD2 present, 4 °C 16 h (none detectable without BRD4BD2): 5%
Substance: GAK_(14–351)-HA (from UniProt O14976 14-351) (domain or fragment)
